Test results taken from patent publication EP1364964A1, “Radiolabeled annexingalactose conjugates” (NEORX CORPORATION, priority 1994, dated 1995).

B1: 1.1: galactose-modified annexin V, substitution ratio 1.1:1 (offering ratio 75:1) (conjugate, UniProt P08758 2-320, looked up)
Annexin A5: AQVLRGTVTDFPGFDERADAETLRKAMKGLGTDEESILTLLTSRSNAQRQEISAAFKTLFGRDLLDDLKSELTGKFEKLIVALMKPSRLYDAYELKHALKGAGTNEKVLTEIIASRTPEELRAIKQVYEEEYGSSLEDDVVGDTSGYYQRMLVVLLQANRDPDAGIDEAQVEQDAQALFQAGELKWGTDEEKFITIFGTRSVSHLRKVFDKYMTISGFQIEETIDRETSGNLEQLLLAVVKSIRSIPAYLAETLYYAMKGAGTDDHTLIRVMVSRSEIDLFNIRKEFRKNFATSLYSMIKGDTSGDYKKALLLLCGEDD
modifications: galactose-modified

Experiments:
[1] = test system: atrial thrombi and injured left atrium; parameters: species or system Yorkshire swine; settings: in vivo
Description: • A. Animal Preparation - LA Vascular Thrombi. […] Continuous electrocardiographic monitoring was instituted using alligator clip electrodes. […] The incision was held open by a thoracotomy retractor. […] The cross-clamp was removed 10 minutes later. […] The intravenous line was then flushed with saline. […] Res. Commun. 80: 849-57, 1978). […] Image acquisition was performed as described below. […] A final blood sample was taken for well counting. […] Open Chest Sham. […] Closed Chest Sham. In seven animals, an ear intravenous line was established. No thoracotomy was performed. […] Ovalbumin. […] Indium Platelets. […] J. Cardiol. […] Non-specific Tc-Labeled Antibody. […] Imaging. […] The cobalt marker was then removed. […] These were followed by a 10 minute tomographic acquisition. […] Each image was scored as positive, equivocal or negative. […] Each vial was counted for 1 minute.
For the injured tissues and thrombi, multiple specimens were usually taken from the same animal. In those cases, the maximum ratio for any one specimen is reported, as well as the average of all specimens taken. The maximum for each animal was averaged across all animals and is reported as the Maximum Anx-V Ratio.

[2] = in vivo
Description: • A. Animal Preparation - LA Vascular Thrombi. Fasting 25-30 kg Yorkshire swine were sedated with intramuscular Telazol (5-10 mg/kg) (commercially available from AVECO Co.) and commercially available Atropine (1 mg, Elkins-Sinn, Inc., Cherry Hill, NJ). Surital (200 mg) (commercially available from Abbott Laboratories) anaesthesia was administered intravenously. The animals were intubated and given inhalation anaesthesia of 1.5-2% halothane (commercially available from Abbott Laboratories) and O2 sufficient to obtain a deep level of anesthesia and physiologic arterial blood gases. Continuous electrocardiographic monitoring was instituted using alligator clip electrodes. A cut down in the neck region was conducted, and an 8 french catheter (USCI Co, Billerica, MA) was placed in the right common carotid artery for blood pressure and arterial blood gas monitoring as well as for blood sampling. The swine were placed in a right lateral decubitus position, and a lateral thoracotomy was performed to expose the heart. The incision was held open by a thoracotomy retractor. The pericardium was opened, and the left atrial appendage was isolated from the left atrium by a vascular cross- clamp. Rubber tipped forceps were used to gently crush the appendage. Five minutes later, ricinoleate (1 mg, ICN Pharmaceuticals, Costa Mesa, CA) and thrombin (50 mg, Johnson and Johnson Co., Arlington, Texas) were injected into the LAA (left atrial appendage) using a 27 Ga needle. The cross-clamp was removed 10 minutes later. One hour after the crush injury, Tc-99m-annexin V, prepared in accordance with Example I above, was administered as an intravenous bolus dose in an ear vein. The intravenous line was then flushed with saline. In 7 animals, I-125 labeled ovalbumin was administered as a non-specific control preparable, for example, by the procedure described by Fraker et al., Biochem. Biophys. Res. Commun. 80: 849-57, 1978). Briefly, I-125-radiolabeled ovalbumin was prepared by the Iodogen method, employing 600 µg ovalbumin (Sigma Chemical Co., St. Louis, Missouri) and NaI-125 (2mCi, 0.92 nmol). Image acquisition was performed as described below. At the end of the experimental procedure (generally about 150 minutes), the animals were sacrificed by an intravenous bolus dose of 80 mEq of KCl while the animals were still under general anaesthetic. A final blood sample was taken for well counting. The heart was rapidly excised, washed free of blood and dissected into samples for well counting. Additional samples of carotid artery, lung, liver, spleen, muscle and kidney were obtained in some animals. • B. Controls. Five different types of controls were used: open chest sham; closed chest sham; ovalbumin; indium platelets; and non-specific Tc-99m-labeled antibody. • 1. Open Chest Sham. In three animals, the heart was exposed as above, but the left atrium was not isolated, crushed or injected with ricinoleate/thrombin. Marker images with a cobalt marker were performed as described below, and the Tc-99m-annexin V was injected 30-60 minutes after LAA exposure. Imaging and sample acquisition were identical to that described in A above. • 2. Closed Chest Sham. In seven animals, an ear intravenous line was established. No thoracotomy was performed. Sedation and anesthesia were identical to that described in A above. The Tc-99m-annexin V (+/other control radionuclides, such as I-125 ovalbumin or In-111-platelets) was administered and image acquisition was performed. • 3. Ovalbumin. I-125 ovalbumin was administered in 7 animals as a negative control protein. […] Indium Platelets. In-111 platelet labeling was performed in 7 animals as a positive well counting label. In-111 radiolabeled platelets were prepared in accordance with the procedure described by Stratton et al., Am. J. Cardiol. 47: 874, 1981 and Stratton et al., Circulation 69: 561, 1984. Imaging was not attempted because of the long serum half-life of the In-111-platelets. • 5. Non-specific Tc-Labeled Antibody. […]

[3] = test system: freshly isolated human platelets; test: competition assay: inhibition of binding of unmodified 125I radiolabeled annexin V to platelets
Description: The ability of galactose-modified annexin V to bind to activated platelets was assessed by determining its ability to inhibit the binding of unmodified, ^125I radiolabeled annexin V to freshly isolated human platelets, following the method of Thiagarajan and Tait J. Biol. Chem. 265: 17240-43, 1990.

| Molecule | highest non-target localization [1] | %ID/g a [2] | %ID/g b [2] | ID/g cleared in the slower b phase [2] | a + b [2] | t1/2 a [2] | t1/2 b [2] | Competition (% of control) ([3]; absolute value (left column), inhibition of 125I annexin V binding to human platelets) | Competition (% of control) ([3]; value normalized to 100% for unmodified annexin V (right column)) |
| --- | --- | --- | --- | --- | --- | --- | --- | --- | --- |
| Tc-99m-annexin V: annexin V radiolabeled with Tc-99m by a diamide dimercaptide N2S2 chelate (Example I) | kidney | 0.0389 %ID/g | 0.0300 %ID/g | 43% | 0.0689 | 9.6 min | 46 min |  |  |
| B1 |  |  |  |  |  |  |  | 21.4 % of control | 28.7 % of control |
